Reference: the nanobody polyreactivity screen of Harvey et al. (2022)

Assay: yeast display, Sf9 membrane polyspecificity reagent, FACS + sequencing; frameworks hold sequencing errors
Summary of the method: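 After 36–48 hours of galactose induction, yeast (Saccharomyces cerevisiae BJ5465) displaying a synthetic nanobody library were stained at 4 °C for 1 hour with 10% biotinylated, detergent-solubilized Sf9 membrane reagent. Streptavidin microbeads enriched the stained cells before FACS sorting into low and high (top ~1%) gates on anti-HA and streptavidin fluorescence. Each clone's polyreactivity label reflects its gate of origin.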

| Sequence | polyreactivity (PSR sort gate) |
| --- | --- |
| QVQLVESGGGLVQAGGSLRLSCAASGYIFWENAMGWYRQAPGKERELVAAITVSGGGTYYADSVKGRFTISRDNAKNTVYLQMNSLKPEDTAVYYCAADEDNPWLWFYYWGQGTQVTVSS | low polyreactivity |
| QVQLVESGGGIVQAGGSLRLSCAASGSTFGTYAMGWYRQAPGKEMELVAAISNSGGSTYYADSVKGRFTISRDNAKNTVYLLMNSLKQEDTAVYYCNTDGLVRNGPFYSWGQGTQVTVSS | low polyreactivity |
| QVQLVESGGGLVQAGGSLRLSCAASGSILLGYDLGWYRQAPGKERELVASIDTNGGSTYYADSVKGRFTISRDNAKNTVYLQMNSLKPEDTAVYYCNADPSFVGGTYDYWGQGTQVTVSS | low polyreactivity |
| QVQLVESGGGLVHAGGSLRLSCAASGIIFDDYAMGSYRQPPGKERELVAAISGRGGRTYYADSVKGRFTISRDNAKNTVYLQMNSLKPEDTAVYYCAGGGRVRYDYWGQGTQVTVSS | low polyreactivity |
| QVQLVESGGGLVQAGGSLRLSCAASGRTFQDNAMGWYRQAPGKERELVAAISWRGGSTNYADSVKGRFTISRDNAKNTVYLQMNSLKPEDTAVYYCAKGIRRWYGGSDYWGQGTQVTVSS | low polyreactivity |
| QVQLVESGGGLVQAGGSLSLSCAASGGIFFIYTMGWKRQAPGKEREMVAAITSTGDTKYADSVKGRFTISRDNAKTTVYLQMNSLKPEDTAVYYCNKDNGTRGKGYDYWGQGTQVTVSS | low polyreactivity |
| QVQLVESVGGLVQAGGSLRLSCAASGSTFYENTMGWYRQAPGKERELVAAISRSGVSTYYADSVKGRFTISRDNAKNTVYLQMNSLKPQDTAVYYCAAIVYRRYDYWGQGTQVTVSS | high polyreactivity |
| QVQLVESGGGLVQAGGSLRLSCAASGRIIASYAMGWNRHAPGKETELVAAISLSGGSTYYADSVKGRFTISRDNAKNTVYLQMNSLKPEDCAVYYCAAKNYRRYRDYYWGQGTQVSVSS | high polyreactivity |
| QVQLVESGGGLVQAGGSLRLSCAASGIIFWLYTMGWYRQAPGKERELVAAITSGGSTYYADSVKGRFTISRDNAKNTVYIQMNSLKPEDTAVYYCAAVPRYRRGKYDYWGQGTQVTVSS | high polyreactivity |
| QVQLVESGGGLVQAGGSLRLSCAASGLIFVSYAMGWYRQAPGKERELVASITYSGGGTYYADSVKGRFTISRDYAKNTVYLQMNSLKPEDNAVYYCNADVCWCYSVYREYCMDYWGQGTQVTVSS | low polyreactivity |
| QVQLVESGGGLVQAGGSLRLSCASSRNIFYLYAMGWYRQAPGKEREFSTSYADSEKGRFTISRDNAKNTVYLQMNSLKPEDTAVYYCAAYNSRGPYYYLFDYWGQGSQVTVSS | low polyreactivity |
| QVQLVESGGGLVQAGGSLRLSCAASGSTFTVYAMGWYRQAPGKERELVAAISWSGGSTYYADSVKGRFTISRDNAKNTVYLQMNSLKPEDTAVYYCAVVIYWRTGEYDYWGQGTQVTVSS | low polyreactivity |
| QVQLVESGGGLVQAGGSLRLSCAASGITFISYVKGWYRQAPGKEREVVAAISKRGGSTYYADSVKGRFTISRDNAKNTVYFKINSLKAEDTAVYYCAAKTIPWSVGYDYWGQGTQVTVSS | high polyreactivity |
| QVQHVESGGGLVQAGGSLRLSCAASGGTFRWNAMGWYRQAPGQERELVAAITKSGGSTYYADSVKGRFTISRDNAKNTVYLQMNSLKPEDTAVYYCATDYLRRRDYWGQGTQVTVSS | high polyreactivity |
| QVQLVESGGGLVQAGGSLRLSCAASGRTFRRYAMGWYRQAPGKERELVASISTSGGSTYADSVKGRFTISRDNAKNTVYLQMNSLKPEDTAVYYCAVRSPRYVRNGDYWGQGTQVTVSS | high polyreactivity |
| QVQLVESGGGLVQAGGSLRLSCAASGRTFPSNVMGWYRQAPGKEREFVAAITTRGGNTRYADSVKGRFTISRDNAKNTVYLQMNSLKPEDTAVFYCAAKVKPGYDYWGQGTQVTVSS | low polyreactivity |
| QVQLVESGGGLVHAGGSLRLSCAASGSIFGYYTMGWYRQAPGKERELDAAITSGGSTNYADSVKGRFTISRDNAKNTVYLEMNSLKPEDTAVYYCAKVSYYPWRYDDWGQGTKVTVSS | low polyreactivity |
